# Substrate: O=c1ccn([C@H]2C[C@H](O)[C@@H](COP(=O)(O)OP(=O)(O)OP(=O)(O)O)O2)c(=O)[nH]1
# Assay: purified protein
# Assay type: biochemical, Arabidopsis thaliana
# Details: pH 7.6, 25 °C, 5 mM MgCl2, 100 mM KCl, 0.25 mM bicine, 50 nM enzyme
protein,measurement,value
"Arabidopsis dUTPase (Arabidopsis thaliana) (protein, full length, 166 residues; His tag removed by thrombin, extra Gly-Ser-His at N-terminus; expressed in E. coli JM103 (DE3); homotrimer) MACVNEPSPKLQKLDRNGIHGDSSPSPFFKVKKLSEKAVIPTRGSPLSAGYDLSSAVDSKVPARGKALIPTDLSIAVPEGTYARIAPRSGLAWKHSIDVGAGVIDADYRGPVGVILFNHSDADFEVKFGDRIAQLIIEKIVTPDVVEVDDLDETVRGDGGFGSTGV",Km,0.4 ± 0.1 µM

# Source: article PMC4678481, “Structural insights into the mechanism defining substrate affinity in Arabidopsis thaliana dUTPase: the role of tryptophan 93 in ligand orientation” (BMC Research Notes, 2015)
